Changes are numbered by the printed parent chain. Where “and” joins values, the source holds several entries; their conditions need not be identical. Identical values can stand only once. Blank lines part the entries; values can stand above or below the binder they belong to.
How the values were obtained:
[1] = molecular target: mouse MASP-2 (endogenous, in mouse serum or hirudin plasma) (mouse, UniProt Q91WP0 20-685); test: cell-based or functional assay
[2] = molecular target: rat MASP-2 (endogenous, in rat serum) (rat, UniProt Q9JJS8 20-685); test: cell-based or functional assay
rat MASP-2 (endogenous, in rat serum), sequence (Q9JJS8 other isoform, or with tags, fused parts or gaps limits assumed): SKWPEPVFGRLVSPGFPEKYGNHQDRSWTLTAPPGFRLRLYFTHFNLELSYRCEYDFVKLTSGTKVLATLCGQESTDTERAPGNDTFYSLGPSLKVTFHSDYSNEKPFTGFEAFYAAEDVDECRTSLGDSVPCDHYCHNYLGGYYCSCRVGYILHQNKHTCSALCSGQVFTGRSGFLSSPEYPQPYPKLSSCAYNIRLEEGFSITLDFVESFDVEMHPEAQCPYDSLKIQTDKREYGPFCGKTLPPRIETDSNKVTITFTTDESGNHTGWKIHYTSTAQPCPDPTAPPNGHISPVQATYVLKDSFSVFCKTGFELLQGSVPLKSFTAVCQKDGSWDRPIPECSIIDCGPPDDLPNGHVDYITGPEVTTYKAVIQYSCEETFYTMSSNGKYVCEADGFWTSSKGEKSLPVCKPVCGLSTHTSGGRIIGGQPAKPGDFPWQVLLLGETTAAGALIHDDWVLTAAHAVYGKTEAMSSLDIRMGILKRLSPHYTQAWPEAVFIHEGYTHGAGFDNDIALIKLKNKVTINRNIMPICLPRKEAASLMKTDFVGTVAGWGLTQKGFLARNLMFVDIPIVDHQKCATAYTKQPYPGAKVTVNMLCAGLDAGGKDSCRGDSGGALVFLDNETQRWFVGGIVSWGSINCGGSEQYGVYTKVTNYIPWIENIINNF

[3] = molecular target: cynomolgus monkey MASP-2 (endogenous, in cynomolgus monkey serum) (cynomolgus monkey, UniProt O00187 16-686 (human entry), limits assumed); test: cell-based or functional assay
cynomolgus monkey MASP-2 (endogenous, in cynomolgus monkey serum), sequence (O00187 other isoform, or with tags, fused parts or gaps limits assumed): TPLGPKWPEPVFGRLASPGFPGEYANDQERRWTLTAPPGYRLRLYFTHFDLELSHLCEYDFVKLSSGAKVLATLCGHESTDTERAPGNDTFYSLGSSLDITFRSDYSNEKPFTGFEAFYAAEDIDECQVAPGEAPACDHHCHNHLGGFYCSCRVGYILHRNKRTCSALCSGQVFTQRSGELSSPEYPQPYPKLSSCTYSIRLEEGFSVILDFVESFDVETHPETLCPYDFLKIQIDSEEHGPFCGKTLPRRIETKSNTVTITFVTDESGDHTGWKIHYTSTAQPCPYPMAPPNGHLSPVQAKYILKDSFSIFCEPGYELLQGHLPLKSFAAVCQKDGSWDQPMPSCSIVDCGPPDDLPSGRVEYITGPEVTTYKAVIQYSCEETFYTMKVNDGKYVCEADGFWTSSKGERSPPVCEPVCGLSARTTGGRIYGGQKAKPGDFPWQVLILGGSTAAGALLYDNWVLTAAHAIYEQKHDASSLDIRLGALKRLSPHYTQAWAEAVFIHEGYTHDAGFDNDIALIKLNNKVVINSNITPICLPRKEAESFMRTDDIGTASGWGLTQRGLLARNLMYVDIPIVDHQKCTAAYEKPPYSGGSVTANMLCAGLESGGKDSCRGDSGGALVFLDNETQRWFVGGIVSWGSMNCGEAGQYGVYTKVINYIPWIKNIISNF

[4] = molecular target: T1, human MASP-2 (endogenous, in normal human serum) (human, UniProt O00187 16-686); test: cell-based or functional assay
T1 sequence (O00187 16-686 limits assumed): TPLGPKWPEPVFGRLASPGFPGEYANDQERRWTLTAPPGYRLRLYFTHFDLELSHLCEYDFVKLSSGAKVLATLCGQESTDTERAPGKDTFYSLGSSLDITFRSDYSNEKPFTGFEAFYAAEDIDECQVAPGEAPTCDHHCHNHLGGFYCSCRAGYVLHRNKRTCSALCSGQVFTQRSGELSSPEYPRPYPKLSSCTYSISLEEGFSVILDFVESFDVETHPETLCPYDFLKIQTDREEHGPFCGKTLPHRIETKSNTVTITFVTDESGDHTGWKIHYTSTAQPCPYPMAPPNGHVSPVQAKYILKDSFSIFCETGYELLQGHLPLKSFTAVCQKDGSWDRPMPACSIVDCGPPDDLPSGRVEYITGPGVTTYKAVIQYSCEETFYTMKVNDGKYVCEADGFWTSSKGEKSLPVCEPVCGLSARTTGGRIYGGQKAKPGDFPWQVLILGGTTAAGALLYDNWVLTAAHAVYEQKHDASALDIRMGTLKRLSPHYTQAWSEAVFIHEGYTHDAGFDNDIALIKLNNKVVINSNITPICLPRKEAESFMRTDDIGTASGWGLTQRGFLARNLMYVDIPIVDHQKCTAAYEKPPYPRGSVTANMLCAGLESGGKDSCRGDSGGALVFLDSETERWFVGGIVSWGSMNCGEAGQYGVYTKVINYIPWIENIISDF

[5] = molecular target: T1, human MASP-2 (endogenous, in normal …); test: cell-based or functional assay; remark: listed apart in the source
[6] = molecular target: T1, human MASP-2 (endogenous, in normal …); test: cell-based or functional assay; remark: listed apart in the source
[7] = molecular target: T2, human MASP-2 (CCP1-CCP2-SP fragment) (human, UniProt O00187 287-686, limits assumed); test: solid phase ELISA, plate coated with human MASP-2 CCP1-CCP2-SP fragment
T2 construct: also called human MASP-2 (CCP1/2/SP fragment); hMASP-2-CCP1-CCP2-SP
T2 sequence (O00187 287-686 limits assumed): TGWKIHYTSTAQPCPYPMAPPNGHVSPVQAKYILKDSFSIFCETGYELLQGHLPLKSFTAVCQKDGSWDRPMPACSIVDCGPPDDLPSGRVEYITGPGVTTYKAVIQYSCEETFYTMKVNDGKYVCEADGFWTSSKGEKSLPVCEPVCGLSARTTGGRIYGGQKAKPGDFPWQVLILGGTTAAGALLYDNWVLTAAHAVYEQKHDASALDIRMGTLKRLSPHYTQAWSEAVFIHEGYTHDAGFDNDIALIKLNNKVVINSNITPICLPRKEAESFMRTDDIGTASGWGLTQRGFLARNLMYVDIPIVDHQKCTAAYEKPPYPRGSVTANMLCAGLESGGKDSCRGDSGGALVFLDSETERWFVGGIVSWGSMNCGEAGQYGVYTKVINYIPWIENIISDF
Experimental: To measure binding of the 26 purified recombinant MASP-2 antibodies to human MASP-2 (CCP1-CCP2-SP fragment), a solid phase ELISA assay was carried out as follows. A MaxiSorp ELISA plate was coated with human MASP-2 (CCP1/2/SP fragment) at 1.0 μg/mL in carbonate/bi-carbonate buffer overnight at 4° C. […] The plate was washed (PBS-T, 0.05%) and a detection antibody was added (goat anti-human IgG-HRP) for one hour at room temperature. After another wash (PBS-T, 0.05%) the plate was developed (5 minutes) with OPT EIA TMB (BD Biosciences #555214). Absorbance reading at A450 was measured using the Spectramax M5e plate reader.
A solid phase ELISA assay was carried out to measure binding of the three selected MASP-2 inhibitory antibodies to human MASP-2 (CCP1-CCP2-SP fragment), as described in Example 1.

[8] = molecular target: T1, human MASP-2 (endogenous, in normal …); test: cell-based or functional assay; remark: listed apart in the source

mouse MASP-2 (endogenous, in mouse serum or hirudin plasma), sequence (Q91WP0 20-685 limits assumed): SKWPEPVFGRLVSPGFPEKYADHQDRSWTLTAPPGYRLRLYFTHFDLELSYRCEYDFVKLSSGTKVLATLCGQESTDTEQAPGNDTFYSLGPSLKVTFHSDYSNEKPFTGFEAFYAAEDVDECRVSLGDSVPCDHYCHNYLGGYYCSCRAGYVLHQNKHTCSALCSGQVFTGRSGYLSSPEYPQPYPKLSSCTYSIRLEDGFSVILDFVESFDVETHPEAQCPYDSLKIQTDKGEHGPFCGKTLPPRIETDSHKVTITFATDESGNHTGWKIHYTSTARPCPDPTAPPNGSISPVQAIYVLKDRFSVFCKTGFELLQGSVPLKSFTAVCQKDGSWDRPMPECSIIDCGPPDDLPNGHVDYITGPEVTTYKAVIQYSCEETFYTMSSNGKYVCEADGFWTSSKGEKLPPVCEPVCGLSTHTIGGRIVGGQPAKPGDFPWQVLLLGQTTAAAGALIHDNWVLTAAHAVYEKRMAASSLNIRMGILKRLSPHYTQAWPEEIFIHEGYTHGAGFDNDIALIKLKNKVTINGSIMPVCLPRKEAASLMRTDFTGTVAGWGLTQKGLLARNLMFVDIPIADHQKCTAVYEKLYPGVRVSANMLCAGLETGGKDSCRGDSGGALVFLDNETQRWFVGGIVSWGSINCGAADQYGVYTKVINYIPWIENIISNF

Human C3b deposition, IC50 [5]: 0.53 nM
B2: OMS850_VH_P53/N (antibody, IgG4, V domains shown)
VH: QVQLQQPGAELVRPGSSVRLSCKASGYTFTNYWMHWLKQRPIQGLEWIGDIDNSDSETHYIEKFKDKATLTIDKSSSTAYMHLSSLTSEDSAIYYCARGDITTTLRYFDVWGTGTTVTVSS
VL: QIVLTQSPVIMSASPGEKVTMTCSASSSVRYMYWYQQKPGSSPRLLIYDTSNLASGVPVRFSGSGSGTSNSLTISRMEAEDAATYYCQQWSSYPLTFGAGTKLELKR

C3b deposition on mannan, 1.0% mouse serum, IC50 [1]: 5.8 nM | C3b deposition on mannan, 0.3% rat serum, IC50 [2]: 0.3 nM | C3b deposition on mannan, 0.25% cynomolgus monkey serum, IC50 [3]: 26.2 nM | C3b deposition on mannan, 1.0% human serum, IC50 [4]: 0.6 nM | EC50 [7]: 0.23 nM | C4b deposition on mannan, 50% human serum, IC50 [8]: 0.1 µg/mL
B5: mAb OMS860 (mouse-human chimeric, mouse parental variable regions) (antibody, human IgG4 S228P, kappa, V domains shown)
VH: B2 VH with R19K, L37V, K38R, N53P, T58I, H59Y, I61N, E62Q, I72V, I93V
VL: B2 VL with M21I, R30S

Human C3b deposition, 1% human serum, IC50 [6]: 0.09 nM
B6: OMS854 (monoclonal antibody OMS852 4PA-1) (antibody, V domains shown)
VH: QVQLVQSGAEVKKPGASVKVSCKASGYTFTNYWMHWLRQAPGQGLEWIGDIDASDSETHYIEKFKDRATLTIDKSSSTAYMELSSLRSEDTAVYYCARGDITTTLRYFDVWGQGTLVTVSS
VL: DIQLTQSPSSLSASVGDRVTITCSASSSVRYMYWYQQKPGKAPKLLIYDTSNLASGVPSRFSGSGSGTDNTLTISSLQPEDFATYYCQQWSSYPLTFGQGTKVEIKR

C3b deposition on mannan, 1.0% mouse serum, IC50 [1]: > 100 nM | C3b deposition on mannan, 0.3% rat serum, IC50 [2]: 0.6 nM | C3b deposition on mannan, 0.25% cynomolgus monkey serum, IC50 [3]: 18.9 nM | C3b deposition on mannan, 1.0% human serum, IC50 [4]: 0.13 nM | EC50 [7]: 0.41 nM | C4b deposition on mannan, 50% human serum, IC50 [8]: 0.09 µg/mL
B7: mAb OMS870 (mouse-human chimeric, mouse parental variable regions) (antibody, human IgG4 S228P, kappa, V domains shown)
VH: EVQLQQPGTELVKPGASVKLSCKASGYTFTSYWMHWVKQRPGQGLEWIGNINPSNGGTNCNEKFKNKATMTVDKSSSTAYMQLSSLTSEDSAVYYCARWAYDAMDYWGQGTSVTVSS
VL: DIVLTQSPASLAVSLGQRATISCRASESVDSYGNSFMHWYQQKPGQAPKLLIYFASNLESGVPARFSGSGSRTDFTLTIDPVEADDAATYFCQQSNEDPLTFGAGTKLELKR

The next lines start with the binder.

B1: mAb OMS850 (mouse-human chimeric, mouse parental variable regions) (antibody, human IgG4 S228P, kappa, V domains shown)
VH: B2 VH with N53P
VL: B2 VL
notes: also called OMS850 parent
C3b deposition on mannan, 1.0% mouse serum, IC50 [1]: 0.5 nM | C3b deposition on mannan, 0.3% rat serum, IC50 [2]: 0.05 nM | C3b deposition on mannan, 0.25% cynomolgus monkey serum, IC50 [3]: 0.4 nM | C3b deposition on mannan, 1.0% human serum, IC50 [4]: 0.15 nM | Human C3b deposition, IC50 [5]: 0.09 nM | Human C3b deposition, 1% human serum, IC50 [6]: 0.15 nM and 0.12 nM | EC50 [7]: 0.25 nM | C4b deposition on mannan, 50% human serum, IC50 [8]: 0.07 µg/mL

B3: OMS850_VH_P53/D (antibody, IgG4, V domains shown)
VH: B2 VH with N53D
VL: B2 VL
Human C3b deposition, IC50 [5]: 0.16 nM

B4: OMS850_VH_P53/A (antibody, IgG4, V domains shown)
VH: B2 VH with N53A
VL: B2 VL
Human C3b deposition, IC50 [5]: 0.07 nM

Source: US20230265215A1 (OMEROS, published 2023)
